In PMC4333415, “Structural insight into operator dre-sites recognition and effector binding in the GntR/HutC transcription regulator NagR” (Nucleic Acids Research, 2015):

What was measured:
NagR (YvoA) [1] = target: T1, NagR (YvoA) (Bacillus subtilis, UniProt O34817 1-243); assay: X-ray crystallography; effector-free; 2.9 A; SPR: HBS-EP pH 7.4, 25 C, biotinylated DNA on SA chip; DNA for EMSA/SEC annealed in 20 mM Tris-HCl pH 7.5, 150 mM NaCl; crystal 4WWC: 0.1 M Bis-Tris pH 6.5, 25% PEG 3500, 292 K; conditions: protein: recombinant; tags: pET15b template; chain copies: 2; 3' overhang 1 nt (G) on each strand; self-complementary, 2 copies
T1 sequence: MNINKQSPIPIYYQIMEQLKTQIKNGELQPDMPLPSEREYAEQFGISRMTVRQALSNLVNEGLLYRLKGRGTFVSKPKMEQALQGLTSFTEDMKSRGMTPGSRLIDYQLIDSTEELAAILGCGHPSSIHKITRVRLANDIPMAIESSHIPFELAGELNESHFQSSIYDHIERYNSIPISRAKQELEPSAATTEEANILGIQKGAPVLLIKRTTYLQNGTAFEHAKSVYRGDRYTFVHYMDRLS

NagR-DBD [2] = target: T2, NagR-DBD (Bacillus subtilis, UniProt O34817 1-75); assay: SEC; 3 uM DNA; SPR: HBS-EP pH 7.4, 25 C, biotinylated DNA on SA chip; DNA for EMSA/SEC annealed in 20 mM Tris-HCl pH 7.5, 150 mM NaCl; crystal 4WWC: 0.1 M Bis-Tris pH 6.5, 25% PEG 3500, 292 K; conditions: protein: recombinant; tags: N-terminal His6 with thrombin site (pET15b); chain copies: 2; 3' overhang 1 nt (T) on each strand; self-complementary, 2 copies
T2 sequence: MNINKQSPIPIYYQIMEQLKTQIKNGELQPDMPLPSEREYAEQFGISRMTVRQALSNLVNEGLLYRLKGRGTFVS

NagR (YvoA) [3] = target: T1, NagR (YvoA); assay: as above; conditions: protein: recombinant; tags: pET15b template; chain copies: 2; 3' overhang 1 nt (T) on each strand; self-complementary, 2 copies
NagR-DBD [4] = target: T2, NagR-DBD; assay: EMSA; 2 uM DNA; higher oligomers by bridging of fragments; SPR: HBS-EP pH 7.4, 25 C, biotinylated DNA on SA chip; DNA for EMSA/SEC annealed in 20 mM Tris-HCl pH 7.5, 150 mM NaCl; crystal 4WWC: 0.1 M Bis-Tris pH 6.5, 25% PEG 3500, 292 K; conditions: protein: recombinant; tags: N-terminal His6 with thrombin site (pET15b); chain copies: 2; 3' overhang 1 nt (T) on each strand; self-complementary, 2 copies
NagR-DBD [5] = target: T2, NagR-DBD; assay: SPR; KD1 of two-step model, steady state; SPR: HBS-EP pH 7.4, 25 C, biotinylated DNA on SA chip; DNA for EMSA/SEC annealed in 20 mM Tris-HCl pH 7.5, 150 mM NaCl; crystal 4WWC: 0.1 M Bis-Tris pH 6.5, 25% PEG 3500, 292 K; conditions: protein: recombinant; tags: N-terminal His6 with thrombin site (pET15b); chain copies: 2; label: 5'-biotin on strand 1; blunt
NagR (YvoA) [6] = target: T1, NagR (YvoA); assay: SPR; kinetic 1:1 fit; SPR: HBS-EP pH 7.4, 25 C, biotinylated DNA on SA chip; DNA for EMSA/SEC annealed in 20 mM Tris-HCl pH 7.5, 150 mM NaCl; crystal 4WWC: 0.1 M Bis-Tris pH 6.5, 25% PEG 3500, 292 K; conditions: protein: recombinant; tags: pET15b template; chain copies: 2; label: 5'-biotin on strand 1; blunt
NagR-DBD [7] = target: T2, NagR-DBD; assay: SPR; SPR: HBS-EP pH 7.4, 25 C, biotinylated DNA on SA chip; DNA for EMSA/SEC annealed in 20 mM Tris-HCl pH 7.5, 150 mM NaCl; crystal 4WWC: 0.1 M Bis-Tris pH 6.5, 25% PEG 3500, 292 K; conditions: protein: recombinant; tags: N-terminal His6 with thrombin site (pET15b); chain copies: 2; label: 5'-biotin on strand 1; blunt; one T:C mismatch as printed at position 3 of strand 1 (possible misprint)
NagR (YvoA) [8] = target: T1, NagR (YvoA); assay: SPR; 1:1 steady state; SPR: HBS-EP pH 7.4, 25 C, biotinylated DNA on SA chip; DNA for EMSA/SEC annealed in 20 mM Tris-HCl pH 7.5, 150 mM NaCl; crystal 4WWC: 0.1 M Bis-Tris pH 6.5, 25% PEG 3500, 292 K; conditions: protein: recombinant, tags: pET15b template, chain copies: 2, label: 5'-biotin on strand 1, blunt
[9] = target: the molecule itself; assay: crystal structure; full-length NagR co-crystallised with 10 mM GlcN-6-P or GlcNAc-6-P; sitting drop, 292 K; isomorphous crystals, space group R32:H; one homodimer in the asymmetric unit
NagR-DBD [10] = target: T2, NagR-DBD; assay: SPR; 1:1 steady state; SPR: HBS-EP pH 7.4, 25 C, biotinylated DNA on SA chip; DNA for EMSA/SEC annealed in 20 mM Tris-HCl pH 7.5, 150 mM NaCl; crystal 4WWC: 0.1 M Bis-Tris pH 6.5, 25% PEG 3500, 292 K; conditions: protein: recombinant; tags: N-terminal His6 with thrombin site (pET15b); chain copies: 2; label: 5'-biotin on strand 1; blunt

B1: 19mer palindromic dsDNA (dsDNA)
DNA 1: CAGTGGTCTAGACCACTGG
DNA 2: CAGTGGTCTAGACCACTGG
- binding result (NagR (YvoA) [1]): binds

B2: 15mer palindromic dsDNA (dsDNA)
DNA 1: GTGGTCTAGACCACT
DNA 2: GTGGTCTAGACCACT
- binding result (NagR-DBD [2]): binds
- binding result (NagR (YvoA) [3]): binds

B3: 15mer palindromic dsDNA (shifted motif) (dsDNA)
DNA 1: GACCACATGTGGTCT
DNA 2: GACCACATGTGGTCT
- binding result (NagR-DBD [4]): binds

B4: 26mer palindromic dsDNA (dsDNA)
DNA 1: GCTCAGGTGGTCTAGACCACTAGTCT
DNA 2: AGACTAGTGGTCTAGACCACCTGAGC
- Kd (NagR-DBD [5]): 14.5 ± 3.3 nM
- Kd (NagR (YvoA) [6]): 0.0279 ± 0.0067 nM

B5: 26mer control dsDNA (random design) (dsDNA)
DNA 1: AATCATTTATGGCATAGGCAACAAGT
DNA 2: ACTTGTTGCCTATGCCATAAATGCTT
- binding result (NagR-DBD [7]): no binding
- Kd (NagR (YvoA) [8]; one T:C mismatch as printed at position 3 of strand 1 (possible misprint)): 306 ± 6.3 nM

B6: 26mer control dsDNA (derived from nagA gene) (dsDNA)
DNA 1: GCAGAGAGTCTTCTTATTAAAGACAT
DNA 2: ATGTCTTTAATAAGAAGACTCTCTGC
- Kd (NagR (YvoA) [8]): 127 ± 4.2 nM

B7: NagR (full-length, wild-type) from Bacillus subtilis (natural protein, UniProt O34817 1-243, looked up)
chain: MNINKQSPIPIYYQIMEQLKTQIKNGELQPDMPLPSEREYAEQFGISRMTVRQALSNLVNEGLLYRLKGRGTFVSKPKMEQALQGLTSFTEDMKSRGMTPGSRLIDYQLIDSTEELAAILGCGHPSSIHKITRVRLANDIPMAIESSHIPFELAGELNESHFQSSIYDHIERYNSIPISRAKQELEPSAATTEEANILGIQKGAPVLLIKRTTYLQNGTAFEHAKSVYRGDRYTFVHYMDRLS
notes: NagR (formerly YvoA), GntR/HutC family transcription repressor of Bacillus subtilis, full length; The nagR gene stood in a pET15b vector; also called YvoA; full-length NagR
- stoichiometry N [9]: 2

B8: 26mer native nagAB dsDNA (dsDNA)
DNA 1: GCTCAGCTGGTCTAGATCACTAGTCT
DNA 2: AGACTAGTGATCTAGACCAGCTGAGC
- Kd (NagR (YvoA) [6]): 0.0192 ± 0.0151 nM
- Kd (NagR-DBD [10]): 122 ± 7.6 nM
